Tests used:
Test in all cases: two-hybrid; LexA-Cdc1 bait (pBTM116 or pBTM116BN) with Gal4 activation domain-Cdc27 prey (pGAD2F-Cdc27) in S. cerevisiae CTY10-5d; ONPG liquid culture beta-galactosidase assay, mean of triplicates, as percent of wild-type Cdc1
Conditions in all cases: partners not purified
Cdc1-E1 = target: T1, Cdc1-E1 (Schizosaccharomyces pombe, UniProt P87324 1-462, Ser-GlyValProGlnSer-Asp)
T1 construct: Cdc1, S. pombe, with a pentapeptide inserted after residue 66; source: yeast two-hybrid fusion, in S. cerevisiae CTY10-5d
T1 sequence (looked up): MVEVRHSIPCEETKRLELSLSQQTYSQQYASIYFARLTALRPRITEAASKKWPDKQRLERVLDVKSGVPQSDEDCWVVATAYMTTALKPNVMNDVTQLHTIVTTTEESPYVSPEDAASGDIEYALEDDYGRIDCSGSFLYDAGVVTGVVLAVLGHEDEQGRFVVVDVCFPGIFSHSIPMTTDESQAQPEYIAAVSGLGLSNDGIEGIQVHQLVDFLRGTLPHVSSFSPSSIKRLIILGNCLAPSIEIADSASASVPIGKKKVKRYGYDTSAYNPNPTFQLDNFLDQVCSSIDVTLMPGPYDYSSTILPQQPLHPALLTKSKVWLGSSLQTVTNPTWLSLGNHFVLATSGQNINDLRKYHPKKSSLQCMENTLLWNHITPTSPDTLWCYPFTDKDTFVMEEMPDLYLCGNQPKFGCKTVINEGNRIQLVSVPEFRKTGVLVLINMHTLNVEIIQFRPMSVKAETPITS

Cdc1-J4 = target: T2, Cdc1-J4 (Schizosaccharomyces pombe, UniProt P87324 1-462, Ile-GlyValProArgIle-Asp)
T2 construct: Cdc1, S. pombe, with a pentapeptide inserted after residue 127; also called J5; J13; source: yeast two-hybrid fusion, in S. cerevisiae CTY10-5d
T2 sequence (looked up): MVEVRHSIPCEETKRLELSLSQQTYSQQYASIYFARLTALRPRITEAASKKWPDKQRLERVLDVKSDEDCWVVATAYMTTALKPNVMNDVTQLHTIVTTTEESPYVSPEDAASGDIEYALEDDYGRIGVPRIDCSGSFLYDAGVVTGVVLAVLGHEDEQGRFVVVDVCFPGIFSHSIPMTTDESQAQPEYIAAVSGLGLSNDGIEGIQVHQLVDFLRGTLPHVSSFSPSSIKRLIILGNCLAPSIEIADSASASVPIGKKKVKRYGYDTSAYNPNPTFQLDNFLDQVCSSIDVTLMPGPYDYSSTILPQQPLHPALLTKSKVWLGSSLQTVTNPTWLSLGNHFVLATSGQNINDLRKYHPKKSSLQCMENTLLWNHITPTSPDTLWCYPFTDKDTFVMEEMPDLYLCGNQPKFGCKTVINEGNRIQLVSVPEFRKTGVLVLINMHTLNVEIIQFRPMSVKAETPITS

Cdc1-A1 = target: T3, Cdc1-A1 (Schizosaccharomyces pombe, UniProt P87324 1-462, Pro292Ala)
T3 construct: Cdc1, S. pombe, point mutant; source: yeast two-hybrid fusion, in S. cerevisiae CTY10-5d
T3 sequence (looked up): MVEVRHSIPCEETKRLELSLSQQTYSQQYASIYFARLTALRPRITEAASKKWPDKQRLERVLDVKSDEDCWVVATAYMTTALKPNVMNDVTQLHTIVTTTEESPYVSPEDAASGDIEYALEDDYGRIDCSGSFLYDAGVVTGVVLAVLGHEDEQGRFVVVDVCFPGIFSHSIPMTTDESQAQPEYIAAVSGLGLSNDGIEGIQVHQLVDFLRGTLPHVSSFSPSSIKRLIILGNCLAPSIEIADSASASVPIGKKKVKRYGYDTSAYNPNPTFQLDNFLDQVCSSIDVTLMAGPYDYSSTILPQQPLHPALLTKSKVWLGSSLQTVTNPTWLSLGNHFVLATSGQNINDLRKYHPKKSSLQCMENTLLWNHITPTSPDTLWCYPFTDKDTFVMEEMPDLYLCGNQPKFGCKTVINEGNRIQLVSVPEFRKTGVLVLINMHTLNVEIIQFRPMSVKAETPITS

Cdc1-J2 = target: T4, Cdc1-J2 (Schizosaccharomyces pombe, UniProt P87324 1-462, Tyr-ArgGlyThrProTyr-Ser)
T4 construct: Cdc1, S. pombe, with a pentapeptide inserted after residue 25; also called J18; J20; source: yeast two-hybrid fusion, in S. cerevisiae CTY10-5d
T4 sequence (looked up): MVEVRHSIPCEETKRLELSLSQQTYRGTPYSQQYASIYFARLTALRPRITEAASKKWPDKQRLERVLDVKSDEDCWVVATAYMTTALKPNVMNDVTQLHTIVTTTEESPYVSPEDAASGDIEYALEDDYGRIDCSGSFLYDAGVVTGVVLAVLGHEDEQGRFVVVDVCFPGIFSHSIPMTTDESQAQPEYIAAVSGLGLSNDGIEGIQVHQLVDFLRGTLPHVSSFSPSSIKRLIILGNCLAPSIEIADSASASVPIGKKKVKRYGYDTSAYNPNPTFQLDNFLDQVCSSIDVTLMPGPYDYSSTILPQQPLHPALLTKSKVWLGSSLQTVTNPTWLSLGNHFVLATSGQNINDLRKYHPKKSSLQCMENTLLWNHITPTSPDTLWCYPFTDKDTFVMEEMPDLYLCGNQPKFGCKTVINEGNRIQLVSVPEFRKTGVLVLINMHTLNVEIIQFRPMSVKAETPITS

Cdc1-E2 = target: T5, Cdc1-E2 (Schizosaccharomyces pombe, UniProt P87324 1-26)
T5 construct: Cdc1, S. pombe, truncated after amino acid 26 by a 16 nt insertion; residues coded by the 16 nt insertion before the stop codon (printed as GlyValProLysTer); source: yeast two-hybrid fusion, in S. cerevisiae CTY10-5d
T5 chain: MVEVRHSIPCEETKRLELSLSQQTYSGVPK

two-hybrid beta-galactosidase activity, % of wild-type Cdc1 (Cdc1-E1): 1%
two-hybrid beta-galactosidase activity, % of wild-type Cdc1 (Cdc1-J4): < 1%
two-hybrid beta-galactosidase activity, % of wild-type Cdc1 (Cdc1-A1): 44%
two-hybrid beta-galactosidase activity, % of wild-type Cdc1 (Cdc1-J2): < 1%
two-hybrid beta-galactosidase activity, % of wild-type Cdc1 (Cdc1-E2): < 1%
B1: Cdc27 (fission yeast DNA polymerase delta C-subunit) (natural protein, Schizosaccharomyces pombe, UniProt P30261 1-372, looked up)
chain: MEEWRNFLDIKVINESSLVTVDNLSLQLDISSEKAQEYLNMFYQGNDFLYPIYLIHGQPIDDEINLEIDEESQPISNFPVLQYILCDKSSLQEKQSRLKSGYKTVIFALSSAPLSDFDELLPAVYEIREKDVLYKKEDADKYGFIFNENSVPRVLKKAPSTHSPQLSVPSKTSTIDKTDTRSTEKTKGKDIFSNARNQKGNSSRKNKKAPLENHKEKEPLLPKEEKLSEQAKRERDDLKNIMQLEDESVSTTSVHDSEDDNLDSNNFQLEIGTEAKSAAPDEPQEIIKSVSGGKRRGKRKVKKYATTKDEEGFLVTKEEEVWESFSEDENISTGTSNVVRNKPTTVNIATKKKNTAQSKPQQKSIMSFFGKK
notes: DNA polymerase delta C-subunit Cdc27, S. pombe; prey plasmid pGAD2F-Cdc27; also called pGAD2F-Cdc27; source: yeast two-hybrid fusion, in S. cerevisiae CTY10-5d

From publication PMC2734569, “Functional mapping of the fission yeast DNA polymerase δ B-subunit Cdc1 by site-directed and random pentapeptide insertion mutagenesis” (BMC Molecular Biology, 2009)
